The text below walks through data of publication PMC3005596 (Journal of molecular biology, 2010).

Residue numbers refer to the chain shown, from its start. Read-outs that look alike come from different tables or passages of the source.

Data set [1] has as its target T1, TRBP (human, UniProt Q15633 1-366).
T1 sequence: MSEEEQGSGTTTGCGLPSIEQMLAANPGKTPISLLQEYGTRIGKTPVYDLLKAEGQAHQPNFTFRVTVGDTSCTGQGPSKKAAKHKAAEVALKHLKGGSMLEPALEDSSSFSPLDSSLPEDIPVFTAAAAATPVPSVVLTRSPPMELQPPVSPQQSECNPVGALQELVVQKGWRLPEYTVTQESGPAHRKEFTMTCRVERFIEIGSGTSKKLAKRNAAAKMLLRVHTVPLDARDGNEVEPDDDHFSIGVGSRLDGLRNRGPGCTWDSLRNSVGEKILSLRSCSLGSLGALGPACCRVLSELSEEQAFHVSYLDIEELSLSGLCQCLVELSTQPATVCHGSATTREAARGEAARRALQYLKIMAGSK
The experiment in a line: filter binding.

Data set [2] has as its target T2, TRBPpm (phospho-mimic) (human, UniProt Q15633 1-366, S142D;S152D;S283D;S286D).
T2 sequence: T1 sequence with S142D, S152D, S283D, S286D
Put plainly: filter binding.

The target in the next data set is Dicer (human, UniProt Q9UPY3 1-1922). Put plainly: filter binding.
The target of a further data set is Dicer;TRBPRBD3 (human;human, UniProt Q9UPY3;Q15633 1-1922;293-366, |). The experiment in a line: filter binding.
The target of a further data set is Dicer;TRBP (human;human, UniProt Q9UPY3;Q15633 1-1922;1-366, |). The experiment in a line: filter binding.
Data set [3] has as its target Dicer;TRBPpm (phospho-mimic) (human;human, UniProt Q9UPY3;Q15633 1-1922;1-366, |S142D;S152D;S283D;S286D). The experiment in a line: filter binding.
Data set [4] deals with T1, TRBP. Put plainly: filter binding. This is another data set of the same source.
In data set [5] the target is T2, TRBPpm (phospho-mimic). Put plainly: filter binding. The source holds these as a separate data set.
Another data set addresses human Dicer (human, UniProt Q9UPY3 1-1922). The experiment in a line: SEC.

Dicer;TRBP, sequence (Q9UPY3 whole entry, one chain of several): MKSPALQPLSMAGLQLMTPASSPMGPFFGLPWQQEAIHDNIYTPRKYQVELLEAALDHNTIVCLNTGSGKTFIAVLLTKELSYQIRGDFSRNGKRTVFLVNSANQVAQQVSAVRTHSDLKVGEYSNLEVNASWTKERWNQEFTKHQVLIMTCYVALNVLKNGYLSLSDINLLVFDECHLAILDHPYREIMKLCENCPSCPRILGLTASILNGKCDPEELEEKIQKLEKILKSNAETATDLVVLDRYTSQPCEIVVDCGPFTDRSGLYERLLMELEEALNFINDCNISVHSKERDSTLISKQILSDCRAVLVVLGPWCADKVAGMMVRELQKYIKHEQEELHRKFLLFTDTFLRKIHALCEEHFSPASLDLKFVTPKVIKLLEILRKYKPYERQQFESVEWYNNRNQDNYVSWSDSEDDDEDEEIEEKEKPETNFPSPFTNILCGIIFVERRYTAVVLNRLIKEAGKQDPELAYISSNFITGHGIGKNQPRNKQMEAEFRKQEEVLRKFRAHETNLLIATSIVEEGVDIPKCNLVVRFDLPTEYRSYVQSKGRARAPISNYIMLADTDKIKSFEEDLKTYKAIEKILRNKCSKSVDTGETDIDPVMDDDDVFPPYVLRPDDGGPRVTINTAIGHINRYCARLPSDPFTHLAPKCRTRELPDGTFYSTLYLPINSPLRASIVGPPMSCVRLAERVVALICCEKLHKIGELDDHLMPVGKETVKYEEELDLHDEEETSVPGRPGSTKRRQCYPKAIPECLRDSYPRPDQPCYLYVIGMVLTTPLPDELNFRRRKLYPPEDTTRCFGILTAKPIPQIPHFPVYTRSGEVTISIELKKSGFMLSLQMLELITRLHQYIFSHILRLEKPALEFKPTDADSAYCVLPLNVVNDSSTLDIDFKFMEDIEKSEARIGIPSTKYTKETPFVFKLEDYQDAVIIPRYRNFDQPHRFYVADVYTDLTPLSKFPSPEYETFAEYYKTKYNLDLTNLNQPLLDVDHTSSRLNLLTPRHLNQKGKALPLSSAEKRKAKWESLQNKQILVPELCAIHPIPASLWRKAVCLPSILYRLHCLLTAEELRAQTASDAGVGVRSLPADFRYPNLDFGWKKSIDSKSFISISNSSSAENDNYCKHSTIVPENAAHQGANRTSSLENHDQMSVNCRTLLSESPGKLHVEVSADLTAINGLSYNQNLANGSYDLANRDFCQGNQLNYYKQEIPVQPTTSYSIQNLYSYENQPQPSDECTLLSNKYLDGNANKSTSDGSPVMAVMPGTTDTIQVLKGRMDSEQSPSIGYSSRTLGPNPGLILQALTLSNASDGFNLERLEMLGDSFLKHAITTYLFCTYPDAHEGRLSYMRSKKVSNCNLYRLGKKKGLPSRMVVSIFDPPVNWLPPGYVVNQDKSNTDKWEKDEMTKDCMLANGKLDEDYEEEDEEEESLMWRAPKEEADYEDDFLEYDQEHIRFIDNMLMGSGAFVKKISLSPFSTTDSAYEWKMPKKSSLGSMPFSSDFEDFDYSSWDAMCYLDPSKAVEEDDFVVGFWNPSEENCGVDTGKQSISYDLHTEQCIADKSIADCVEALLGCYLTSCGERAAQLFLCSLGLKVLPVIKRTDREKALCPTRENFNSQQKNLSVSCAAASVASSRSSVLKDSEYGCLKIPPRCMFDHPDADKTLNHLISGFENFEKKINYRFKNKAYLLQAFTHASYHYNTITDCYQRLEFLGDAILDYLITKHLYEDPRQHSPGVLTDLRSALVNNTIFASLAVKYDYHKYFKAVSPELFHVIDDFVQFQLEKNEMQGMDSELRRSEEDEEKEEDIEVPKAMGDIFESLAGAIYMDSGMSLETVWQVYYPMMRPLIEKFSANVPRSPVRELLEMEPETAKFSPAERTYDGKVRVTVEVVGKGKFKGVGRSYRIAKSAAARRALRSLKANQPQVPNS
human Dicer, sequence (Q9UPY3 whole entry): as the sequence (Q9UPY3 whole entry, one chain of several) above
Dicer, sequence (Q9UPY3 whole entry): as the sequence (Q9UPY3 whole entry, one chain of several) above
Dicer;TRBPRBD3, sequence (Q9UPY3 whole entry, chain 1 of 2, one chain of several): as the sequence (Q9UPY3 whole entry, one chain of several) above
Dicer;TRBPpm (phospho-mimic), sequence (Q9UPY3 whole entry, chain 1 of 2): as the sequence (Q9UPY3 whole entry, one chain of several) above
Dicer;TRBPpm (phospho-mimic), sequence (Q15633 whole entry S142D/S152D/S283D/S286D, chain 2 of 2): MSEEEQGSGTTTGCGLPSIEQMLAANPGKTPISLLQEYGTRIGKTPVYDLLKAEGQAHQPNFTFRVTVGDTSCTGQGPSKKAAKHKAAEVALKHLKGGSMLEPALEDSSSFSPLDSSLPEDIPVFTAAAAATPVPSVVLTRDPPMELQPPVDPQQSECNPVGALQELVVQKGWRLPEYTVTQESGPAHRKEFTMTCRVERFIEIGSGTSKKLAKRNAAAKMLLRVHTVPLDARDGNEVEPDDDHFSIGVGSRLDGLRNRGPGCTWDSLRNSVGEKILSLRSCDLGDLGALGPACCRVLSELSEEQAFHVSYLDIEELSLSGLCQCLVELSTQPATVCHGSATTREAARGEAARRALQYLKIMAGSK

B1: pre-let-7a (structured_RNA)
RNA: UGAGGUAGUAGGUUGUAUAGUUUUAGGGUCACACCCACCACUGGGAGAUAACUAUACAAUCUACUGUCUUACC
B1: the Kd was 1.3 ± 0.2 nM with TRBP [1]; 2.9 ± 0.6 nM with TRBPpm (phospho-mimic) [2]; 1.8 ± 0.4 nM with Dicer; 1.3 ± 0.1 nM with Dicer;TRBPRBD3; less than 0.05 nM with Dicer;TRBP; less than 0.04 nM in [3].

B2: 35-bp duplex (pre-siRNA) (dsRNA)
RNA 1: UGAGGUAGUAGGUUGUAUAGUUUGAAAGUUCACGAUU
RNA 2: UCGUGAACUUUCAAACUAUACAACCUACUACCUCAAA
As to B2, the Kd is 3.4 ± 0.5 nM with Dicer; 3 ± 0.4 nM with Dicer;TRBPRBD3; less than 0.09 nM in the data set with TRBP [4]; less than 0.1 nM with TRBPpm (phospho-mimic) [5]; less than 0.051 nM with Dicer;TRBP.

B3: HIV trans-activating response (TAR) RNA binding protein (TRBP) (natural protein, human, UniProt Q15633 1-366, looked up)
chain: T1 sequence
Consider B3, for which the binding result with human Dicer is “binds”.

B4: phospho-mimic mutant of TRBP (TRBPpm) (natural protein, human, UniProt Q15633 1-366, looked up)
chain: T1 sequence with S142D, S152D, S283D, S286D
On to B4, for which, in the data set with human Dicer, the binding result was “binds”.

Usually Kd stands for the concentration at which binding is half-saturated. A high value points to weaker binding.
